In the Human Domainome abundance scans (Beltran et al. 2025):

B1: Homeobox protein cut-like 1, residues 548 to 629; numbered along this chain, P39880 (parent)
chain: GEEMDTAEIARQVKEQLIKHNIGQRIFGHYVLGLSQGSVSEILARPKPWNKLTVRGKEPFHKMKQFLSDEQNILALRSIQGR

Variants of: B1
Experiment: abundance fitness (aPCA) (normalised: wild type 0, dead -1); higher = more abundant; growth selection in yeast, the domain comes from the species named
Conditions: Homo sapiens

Abundance fitness: each site, then its substitutions
M63: T -0.777; G -1.04; K -0.992; D -0.949; A -0.677; H -1.13; N -1.16; E -0.872; Y -0.94; V -0.886; L -0.423; I -0.31; W -1.02; F -0.753; P -0.797; R -1
E70: S -0.083; A -0.026; D -0.043; L -0.307; R -0.055; H 0.001; F -0.213; N -0.084; I -0.187; C -0.118; M -0.139; Q -0.047; P 0.026; G -0.126; T -0.121
K64: D -0.489; A -0.028; V -0.023; M -0.061; R -0.049; E -0.167; Q 0.033; F -0.15; S -0.154; P -0.917; T -0.287; Y -0.112; L -0.064; G -0.43; W -0.24; H -0.216; C -0.273; N -0.225
H61: Q 0.04; V 0.009; A -0.07; Y 0.067; R 0.014; E 0.021; I 0.075; L 0.071; C -0.134; N -0.11; K 0.013; G -0.342; S -0.137; F 0.069; W -0.03
G56: S -0.254; L -0.098; H -0.352; M -0.143; E 0.085; T -0.333; R -0.711; I -0.282; D 0.036; V -0.343; K -0.595; Q 0.077; N -0.22; P -0.697; C -0.279; Y -0.313; W -0.265; F -0.224
L67: Y -0.609; D -0.876; N -0.582; S -1.01; G -0.848; K -0.918; I -0.303; C -0.498; V -0.243; W -0.817; F -0.341; H -1.21; R -0.979; Q -0.978; A -0.736; M -0.284
F60: Y 0.019; C -0.762; P -0.897; M -0.536; T -0.835; I -0.306; Q -0.761; A -0.944; E -0.799; G -0.952; R -1.01; V -0.911; S -0.869; W 0.035; D -0.803
V54: L 0.028; K 0.058; W -0.173; P 0.036; Q 0.064; C -0.063; R -0.028; D 0.052; Y -0.033; T 0.03; S -0.033; A 0.066; N 0.08; E 0.136; F -0.094; M 0.119; G -0.04; I -0.001
P59: D 0.047; A 0.091; H 0.025; N 0.113; R 0.023; F 0.052; C 0.1; M 0.078; T 0.088; L 0.133; G -0.024; I 0.099; Y 0.025; K -0.034; S 0.076; Q 0.078; W 0.077; E 0.101
L52: H -1.02; A -1.04; S -0.97; R -1.1; D -1.17; V -0.879; F -0.915; Q -0.825; T -0.99; Y -0.602; C -0.484; I -0.538; P -0.97; N -1.1; E -1.02; K -1.13
Q65: W -0.201; P -0.933
